One assay has as its target cyno GUCY2C (cynomolgus monkey, UniProt A0A2K5TZ02 16-1015). Put plainly: flow cytometry on CHO-cynoGUCY2C cells, 60 min at 37 °C. (In general: In flow cytometry, cells or beads pass a laser one at a time.)
In a further assay the target is T1, human GUCY2C (human, UniProt P25092 24-1073).
T1 construct: whole, on cells; also called huGUCY2C; guanylate cyclase 2C
Put plainly: flow cytometry on CHO-huGUCY2C cells, 60 min at 37 °C.

Assay [1] deals with T2, human claudin 18.2 (human, UniProt P56856-2 1-261).
T2 construct: whole, on cells; also called CLDN18.2
T2 sequence (looked up): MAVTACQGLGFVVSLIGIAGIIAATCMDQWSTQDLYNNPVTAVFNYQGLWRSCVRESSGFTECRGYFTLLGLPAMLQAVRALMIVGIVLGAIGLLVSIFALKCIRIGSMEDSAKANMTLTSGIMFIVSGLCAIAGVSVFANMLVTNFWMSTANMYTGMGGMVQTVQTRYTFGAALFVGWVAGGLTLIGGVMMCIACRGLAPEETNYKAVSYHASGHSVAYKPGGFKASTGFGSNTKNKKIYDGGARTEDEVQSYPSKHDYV
Put plainly: flow cytometry on GSU cells, 1 hr at 37 °C.
Description: (§1) Cells were thawed in a 37° C. water bath and resuspended in complete assay media before being transferred to culture flasks. The cells used for this experiment were kept in active culture, passaged at least two times, and were >90% viable at assay initiation. The kinetic cell binding assay was initiated by adding 200 μL of cells and 200 μL of antibody into each well of a 2 mL 96-well deep plate and incubated at 37° C. At each time point, a 50 μL aliquot was removed and transferred to a round bottom 96-well plate containing cold FACS buffer. […] The secondary antibody was incubated with cells for 30 min at 4° C. protected from light. After incubation, cells were washed three times with cold FACS buffer and then resuspended in FACS buffer containing 0.1% pluronic acid, 2 mM EDTA, and Sytox Green (diluted 1:1000) to label all dead cells. Staining was immediately analyzed on the Intellicyt iQue3 (Sartorius).

In assay [2] the target is T2, human claudin 18.2. The experiment in a line: flow cytometry on SK-CO-1 cells, 1 hour at 37 °C.
Description: Purified CLDN18.2×CD3 antibodies were assessed for their ability to bind to cell lines expressing endogenous CLDN18.2 (SK-CO-1).
SK-CO-1 cells and DMS 454 cells were suspended in 50 ml conical tubes at 20-22 million cells per 50 ml conical tube. […] Cells were incubated for 10 minutes at room temperature protected from light, and centrifuged for 5 minutes at 400×g. The supernatant was removed and the cells were resuspended in HI FBS at ˜1.5×10\hat{ }6 cells/mL to quench the staining reactions. All cells were resuspended in fresh media at ˜1.5×10\hat{ }6 cells/mL. Equal volumes of CFSE stained SK-CO-1 cells, CTV stained DMS 454 cells and unstained SK-CO-1 cells were mixed and 50 μl of mixed cells were plated per well into assay plates (˜25k cells/each cell line; ˜75k/total mixed cells/well). Anti-human transferrin human mAb and human IgG1_AAS isotype (bivalent) were used as positive and negative controls, respectively. 50 μl of CLDN18.2×CD3 titrations at 2× concentration were added in each well containing cells and incubated for one hours at 37° C. 150 μl staining buffer was added to each well after one hour incubation. The plate was spun at 500×g for 5 minutes to pellet the cells. 150 μl staining buffer was added again to each well and the plate was spun at 500×g for 5 minutes to pellet the cells. Supernatant was removed and 50 μl of A647 conjugated anti human IgG Fc specific secondary detection antibody (Jackson ImmunoResearch) was the added at 2 μg/mL in staining buffer to each well. The plates were covered with foil and incubated for 30 minutes on ice. 150 μL of IntelliCyt running buffer was added to the wells, and the plate was spun at 500×g for 5 minutes to pellet cells and the supernatant was removed. Cells were then resuspended in 35 μL running buffer and the plates were run on an iQue Screener (Sartorius).
Assay [3] deals with T2, human claudin 18.2. The experiment in a line: flow cytometry on NCI-H146 cells, 1 hr at 37 °C.
Description: as §1
The target of assay [4] is T3, prostate specific membrane antigen (PSMA) (human, UniProt Q04609 1-750). Put plainly: cell-based or functional assay.
T3 sequence (Q04609 whole entry): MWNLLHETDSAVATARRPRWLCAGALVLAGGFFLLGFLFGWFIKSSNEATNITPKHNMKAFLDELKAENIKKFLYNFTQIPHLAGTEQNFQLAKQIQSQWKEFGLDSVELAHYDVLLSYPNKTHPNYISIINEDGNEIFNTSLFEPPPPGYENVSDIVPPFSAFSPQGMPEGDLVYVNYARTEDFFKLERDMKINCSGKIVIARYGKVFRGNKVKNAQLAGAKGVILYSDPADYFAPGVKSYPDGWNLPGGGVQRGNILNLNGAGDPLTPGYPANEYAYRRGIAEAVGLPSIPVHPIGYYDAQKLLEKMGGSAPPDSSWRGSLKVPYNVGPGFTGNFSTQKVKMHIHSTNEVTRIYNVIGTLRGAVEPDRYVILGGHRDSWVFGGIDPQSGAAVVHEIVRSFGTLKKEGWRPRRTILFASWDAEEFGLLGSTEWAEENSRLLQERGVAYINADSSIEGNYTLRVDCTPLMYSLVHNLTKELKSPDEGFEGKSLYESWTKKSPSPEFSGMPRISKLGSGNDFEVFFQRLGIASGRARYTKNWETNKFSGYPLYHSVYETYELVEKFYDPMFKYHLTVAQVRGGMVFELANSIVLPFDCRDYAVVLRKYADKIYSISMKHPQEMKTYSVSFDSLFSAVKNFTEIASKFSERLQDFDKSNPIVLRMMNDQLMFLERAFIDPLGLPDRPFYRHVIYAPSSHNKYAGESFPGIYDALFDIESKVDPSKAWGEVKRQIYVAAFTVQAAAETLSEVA
Another assay has as its target T4, Human CD3 epsilon (human, UniProt P07766 23-207).
T4 construct: Stood on human T cells (pan-T cells, isolated donor T cells) as part of the TCR/CD3 complex; the other chains of the complex are not written here; also called CD3ε; CD3R
Put plainly: flow cytometry on human PAN-T cells, 60 min at 4 °C.

The target of assay [5] is T3, prostate specific membrane antigen …. The experiment in a line: flow cytometry on LNCaP cells, 30 min at 37 °C.
Description: Media was added to neutralize trypsin and the cells were transferred to a 15 mL conical with DPBS. The cells were centrifuged 1300 rpm for 5 minutes. DPBS was aspirated and cells were re-suspended in DPBS. The cells were counted using the Vi-cell XR cell viability analyzer and were plated at 100K/well in 100 μL DPBS. The plate was centrifuged at 1200 rpm for 3 minutes and washed 2× with DPBS. Cells were stained with Violet Live/Dead stain (Thermo-Fisher) and incubated at room temperature in the dark for 15 min. The cells were centrifuged and washed 2× with FACS staining buffer (BD Pharmingen).
Cells were washed 2× with FACS staining buffer and re-suspended in 200 μL FACS Buffer. Cells were run on BD CELESTA using FACS Diva software and analyzed using FLOWJO.

T1 sequence (P25092 24-1073): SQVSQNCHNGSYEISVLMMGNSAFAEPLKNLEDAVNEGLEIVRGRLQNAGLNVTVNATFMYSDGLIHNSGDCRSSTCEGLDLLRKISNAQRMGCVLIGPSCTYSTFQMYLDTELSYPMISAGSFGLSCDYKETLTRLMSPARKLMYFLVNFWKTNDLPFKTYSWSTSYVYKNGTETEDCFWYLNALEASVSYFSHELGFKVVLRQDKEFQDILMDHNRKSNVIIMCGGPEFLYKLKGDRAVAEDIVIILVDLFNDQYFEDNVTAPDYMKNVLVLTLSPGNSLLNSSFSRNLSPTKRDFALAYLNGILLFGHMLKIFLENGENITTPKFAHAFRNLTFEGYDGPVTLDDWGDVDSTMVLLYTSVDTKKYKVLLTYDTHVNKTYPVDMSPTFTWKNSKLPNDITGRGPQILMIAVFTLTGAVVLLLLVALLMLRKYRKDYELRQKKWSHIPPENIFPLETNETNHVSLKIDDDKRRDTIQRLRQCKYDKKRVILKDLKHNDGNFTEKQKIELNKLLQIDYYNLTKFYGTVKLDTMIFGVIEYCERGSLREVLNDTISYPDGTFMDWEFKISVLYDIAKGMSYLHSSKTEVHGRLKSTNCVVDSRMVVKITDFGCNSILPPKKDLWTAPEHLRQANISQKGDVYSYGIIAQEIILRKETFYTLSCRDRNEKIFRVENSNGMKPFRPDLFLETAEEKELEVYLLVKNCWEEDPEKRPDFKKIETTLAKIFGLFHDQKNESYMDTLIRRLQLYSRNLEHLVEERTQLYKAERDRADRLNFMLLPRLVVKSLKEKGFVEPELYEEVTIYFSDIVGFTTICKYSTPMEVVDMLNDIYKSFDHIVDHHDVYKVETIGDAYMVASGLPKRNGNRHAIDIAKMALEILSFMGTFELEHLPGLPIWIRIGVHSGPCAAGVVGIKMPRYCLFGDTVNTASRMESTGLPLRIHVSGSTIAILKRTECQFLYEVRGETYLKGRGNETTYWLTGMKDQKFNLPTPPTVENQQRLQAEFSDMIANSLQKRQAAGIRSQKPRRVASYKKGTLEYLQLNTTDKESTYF
Sequence of cyno GUCY2C (A0A2K5TZ02 entry or part of it): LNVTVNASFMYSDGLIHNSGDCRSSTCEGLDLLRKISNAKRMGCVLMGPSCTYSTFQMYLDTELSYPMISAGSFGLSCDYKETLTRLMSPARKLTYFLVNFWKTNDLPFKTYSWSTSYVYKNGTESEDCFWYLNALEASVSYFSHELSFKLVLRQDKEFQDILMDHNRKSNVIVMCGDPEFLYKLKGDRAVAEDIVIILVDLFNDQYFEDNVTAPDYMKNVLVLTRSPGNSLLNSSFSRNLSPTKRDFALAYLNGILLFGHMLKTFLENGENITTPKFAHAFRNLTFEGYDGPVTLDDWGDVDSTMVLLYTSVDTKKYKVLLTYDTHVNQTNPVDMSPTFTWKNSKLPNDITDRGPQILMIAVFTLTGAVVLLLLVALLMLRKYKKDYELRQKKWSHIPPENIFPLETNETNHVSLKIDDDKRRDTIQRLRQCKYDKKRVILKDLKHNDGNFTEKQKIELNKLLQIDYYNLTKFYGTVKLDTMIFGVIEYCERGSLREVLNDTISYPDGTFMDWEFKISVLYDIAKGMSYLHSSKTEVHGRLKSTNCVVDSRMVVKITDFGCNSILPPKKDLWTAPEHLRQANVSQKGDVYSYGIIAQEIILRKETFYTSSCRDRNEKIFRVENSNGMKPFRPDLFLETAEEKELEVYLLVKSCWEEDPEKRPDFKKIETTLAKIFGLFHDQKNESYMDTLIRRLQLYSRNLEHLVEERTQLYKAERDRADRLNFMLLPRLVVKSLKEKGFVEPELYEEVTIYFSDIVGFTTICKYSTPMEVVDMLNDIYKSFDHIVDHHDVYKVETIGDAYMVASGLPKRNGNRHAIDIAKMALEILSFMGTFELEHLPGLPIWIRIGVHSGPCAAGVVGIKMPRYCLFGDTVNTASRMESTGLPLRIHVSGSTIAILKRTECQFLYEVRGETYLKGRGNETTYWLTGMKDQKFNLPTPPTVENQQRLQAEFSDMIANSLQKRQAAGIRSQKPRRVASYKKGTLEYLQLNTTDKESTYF
T4 sequence (P07766 23-207 limits assumed): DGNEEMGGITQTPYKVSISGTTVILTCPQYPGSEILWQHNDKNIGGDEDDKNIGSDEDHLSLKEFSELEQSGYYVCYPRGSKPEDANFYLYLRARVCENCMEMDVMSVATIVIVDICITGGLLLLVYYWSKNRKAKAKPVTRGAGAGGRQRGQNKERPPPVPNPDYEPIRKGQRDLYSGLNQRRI
Description for Human CD3 epsilon: Human PAN-T Cells (Biological Specialty Corporation, Colmar, PA) were thawed and transferred to a 15 mL conical with DPBS. The cells were centrifuged 1300 rpm for 5 minutes. DPBS was aspirated and cells were re-suspended in DPBS. The cells were counted using the Vi-cell XR cell viability analyzer and were plated at 100K/well in 100 uL DPBS. The plate was centrifuged 1200 rpm for 3 minutes and washed 2× with DPBS. Cells were stained with Violet Live/Dead stain (Thermo-Fisher) and incubated at room temperature in the dark for 15 min. The cells were centrifuged and washed 2× with FACS staining buffer (BD Pharmingen).
Cells were washed 2× with FACS staining buffer and re-suspended in 200 μL FACS Buffer. Cells were run on BD Celesta using FACS Diva software and analyzed using FLOWJO.
Description for cyno GUCY2C: (§2) Cells were washed twice again, resuspended and acquired in a flow cytometer. Specific antibody binding was assessed in the RL1H channel for each cell line. Data presented as signal/background where background is secondary only.
Description for human GUCY2C: as §2

B1: GUCY2C_mAb (antibody, V domains shown)
VH: QVQLQESGPGLVKPSETLSLTCTVSGASISHYYWSWIRRPAGKGLEWIGRIYTSGSTNYNPSLKSRVTVSVDTSKNQFSLKLSSVTAADTAVYYCARDRYTGYFDLWGRGTLVTVSS
VL: not shown
notes: also called GUCYC2_mAb
One may read the EC50 as the midpoint of the concentration-response curve. Low readings indicate a more potent agent, high ones a less potent agent. Regarding B1, the EC50 came out at 8.7 nM in the assay with cyno GUCY2C and 4.6 nM with human GUCY2C.

B2: CLDN18.2xCD3 bisp-Ab4 (bispecific antibody)
heavy: EVQLLESGGGLVQPGGSLRLSCAASGFIFSNYYMAWVRLAPGKGLEWVSSISIGGGKSHYADSVKGRFTISRDNSKNTLYLQMNSLRAEDTAVYYCVRHPQLGPNPFDYWGQGTLVTVSSASTKGPSVFPLAPSSKSTSGGTAALGCLVKDYFPEPVTVSWNSGALTSGVHTFPAVLQSSGLYSLSSVVTVPSSSLGTQTYICNVNHKPSNTKVDKKVEPKSCDKTHTCPPCPAPEAAGGPSVFLFPPKPKDTLMISRTPEVTCVVVSVSHEDPEVKFNWYVDGVEVHNAKTKPREEQYNSTYRVVSVLTVLHQDWLNGKEYKCKVSNKALPAPIEKTISKAKGQPREPQVYTLPPSREEMTKNQVSLSCAVKGFYPSDIAVEWESNGQPENNYKTTPPVLDSDGSFFLVSKLTVDKSRWQQGNVFSCSVMHEALHNRFTQKSLSLSPGK
light: DIQMTQSPSSLSASVGDRVTITCRASQSVTISSVDLMNWYQQKPGKAPKLLIYRASNLASGIPSRFSGSGSGTDFTLTISSLQPEDFATYYCQQSRESPYTFGQGTKLEIKRTVAAPSVFIFPPSDEQLKSGTASVVCLLNNFYPREAKVQWKVDNALQSGNSQESVTEQDSKDSTYSLSSTLTLSKADYEKHKVYACEVTHQGLSSPVTKSFNRGEC
chain: EIVLTQSPATLSASPGERVTLSCSASSSVSYMNWYQQKPGCAPRRWIYDSSKLASGVPARFSGSGSGRDYTLTISSLEPEDFAVYYCQQWSRNPPTFGGGTKVEIKGGGSGGSGGCPPCGGSGGQVQLVQSGAEVKKPGSSVKVSCKASGYTFTRSTMHWVKQAPGQGLEWIGYINPSSAYTNYNQKFQGRVTLTADKSTSTAYMELSSLRSEDTAVYYCASPQVHYDYAGFPYWGCGTLVTVSS
notes: The entry for the CD3 arm holds only the spFv; also called CLDN18.2×CD3 bisp-Ab4; not shown: IgG1 hinge-CH2-CH3 with L234A/L235A/D265S and heterodimerization mutations
Take B2: the EC50 with human claudin 18.2 [1] came to 74 nM; with human claudin 18.2 [2], 41.3 nM; in the assay with human claudin 18.2 [3] it was 23 nM.

B3: CLDN18.2xCD3 bisp-Ab3 (bispecific antibody)
heavy: EVQLLESGGGLVQPGGSLRLSCAASGFIFSNYYMAWVRLAPGKGLEWVSSISIGGGKSHYADSVKGRFTISRDNSKNTLYLQMNSLRAEDTAVYYCVRHPQSGPNPFDYWGQGTLVTVSSASTKGPSVFPLAPSSKSTSGGTAALGCLVKDYFPEPVTVSWNSGALTSGVHTFPAVLQSSGLYSLSSVVTVPSSSLGTQTYICNVNHKPSNTKVDKKVEPKSCDKTHTCPPCPAPEAAGGPSVFLFPPKPKDTLMISRTPEVTCVVVSVSHEDPEVKFNWYVDGVEVHNAKTKPREEQYNSTYRVVSVLTVLHQDWLNGKEYKCKVSNKALPAPIEKTISKAKGQPREPQVYTLPPSREEMTKNQVSLSCAVKGFYPSDIAVEWESNGQPENNYKTTPPVLDSDGSFFLVSKLTVDKSRWQQGNVFSCSVMHEALHNRFTQKSLSLSPGK
light: DIQMTQSPSSLSASVGDRVTITCRASQSVTISSVDLMNWYQQKPGKAPKLLIYRASNLASGIPSRFSGSGSGTDFTLTISSLQPEDFATYYCQQSRESPYTFGQGTKLEIKRTVAAPSVFIFPPSDEQLKSGTASVVCLLNNFYPREAKVQWKVDNALQSGNSQESVTEQDSKDSTYSLSSTLTLSKADYEKHKVYACEVTHQGLSSPVTKSFNRGEC
chain: EIVLTQSPATLSASPGERVTLSCSASSSVSYMNWYQQKPGCAPRRWIYDSSKLASGVPARFSGSGSGRDYTLTISSLEPEDFAVYYCQQWSRNPPTFGGGTKVEIKGGGSGGSGGCPPCGGSGGQVQLVQSGAEVKKPGSSVKVSCKASGYTFTRSTMHWVKQAPGQGLEWIGYINPSSAYTNYNQKFQGRVTLTADKSTSTAYMELSSLRSEDTAVYYCASPQVHYDYAGFPYWGCGTLVTVSS
notes: The entry for the CD3 arm holds only the spFv; not shown: IgG1 hinge-CH2-CH3 with L234A/L235A/D265S and heterodimerization mutations
Regarding B3, the EC50 with human claudin 18.2 [2] amounted to 229 nM.

B4: CLDN18.2xCD3 bisp-Ab2 (bispecific antibody)
heavy: EVQLLESGGGLVQPGGSLRLSCAASGFIFSNYYMAWVRLAPGKGLEWVSSISIGGGKSHYADSVKGRFTISRDNSKNTLYLQMNSLRAEDTAVYYCVRHPSLGPNPFDYWGQGTLVTVSSASTKGPSVFPLAPSSKSTSGGTAALGCLVKDYFPEPVTVSWNSGALTSGVHTFPAVLQSSGLYSLSSVVTVPSSSLGTQTYICNVNHKPSNTKVDKKVEPKSCDKTHTCPPCPAPEAAGGPSVFLFPPKPKDTLMISRTPEVTCVVVSVSHEDPEVKFNWYVDGVEVHNAKTKPREEQYNSTYRVVSVLTVLHQDWLNGKEYKCKVSNKALPAPIEKTISKAKGQPREPQVYTLPPSREEMTKNQVSLSCAVKGFYPSDIAVEWESNGQPENNYKTTPPVLDSDGSFFLVSKLTVDKSRWQQGNVFSCSVMHEALHNRFTQKSLSLSPGK
light: DIQMTQSPSSLSASVGDRVTITCRASQSVTISSVDLMNWYQQKPGKAPKLLIYRASNLASGIPSRFSGSGSGTDFTLTISSLQPEDFATYYCQQSRESPYTFGQGTKLEIKRTVAAPSVFIFPPSDEQLKSGTASVVCLLNNFYPREAKVQWKVDNALQSGNSQESVTEQDSKDSTYSLSSTLTLSKADYEKHKVYACEVTHQGLSSPVTKSFNRGEC
chain: EIVLTQSPATLSASPGERVTLSCSASSSVSYMNWYQQKPGCAPRRWIYDSSKLASGVPARFSGSGSGRDYTLTISSLEPEDFAVYYCQQWSRNPPTFGGGTKVEIKGGGSGGSGGCPPCGGSGGQVQLVQSGAEVKKPGSSVKVSCKASGYTFTRSTMHWVKQAPGQGLEWIGYINPSSAYTNYNQKFQGRVTLTADKSTSTAYMELSSLRSEDTAVYYCASPQVHYDYAGFPYWGCGTLVTVSS
notes: as for B3
As to B4, the EC50 with human claudin 18.2 [2] is 193 nM.

B5: CLDN18.2xCD3 bisp-Ab1 (bispecific antibody)
heavy: EVQLLESGGGLVQPGGSLRLSCAASGFIFSNYYMAWVRLAPGKGLEWVSSISIGGGKSSYADSVKGRFTISRDNSKNTLYLQMNSLRAEDTAVYYCVRHPQLGPNPFDYWGQGTLVTVSSASTKGPSVFPLAPSSKSTSGGTAALGCLVKDYFPEPVTVSWNSGALTSGVHTFPAVLQSSGLYSLSSVVTVPSSSLGTQTYICNVNHKPSNTKVDKKVEPKSCDKTHTCPPCPAPEAAGGPSVFLFPPKPKDTLMISRTPEVTCVVVSVSHEDPEVKFNWYVDGVEVHNAKTKPREEQYNSTYRVVSVLTVLHQDWLNGKEYKCKVSNKALPAPIEKTISKAKGQPREPQVYTLPPSREEMTKNQVSLSCAVKGFYPSDIAVEWESNGQPENNYKTTPPVLDSDGSFFLVSKLTVDKSRWQQGNVFSCSVMHEALHNRFTQKSLSLSPGK
light: DIQMTQSPSSLSASVGDRVTITCRASQSVTISSVDLMNWYQQKPGKAPKLLIYRASNLASGIPSRFSGSGSGTDFTLTISSLQPEDFATYYCQQSRESPYTFGQGTKLEIKRTVAAPSVFIFPPSDEQLKSGTASVVCLLNNFYPREAKVQWKVDNALQSGNSQESVTEQDSKDSTYSLSSTLTLSKADYEKHKVYACEVTHQGLSSPVTKSFNRGEC
chain: EIVLTQSPATLSASPGERVTLSCSASSSVSYMNWYQQKPGCAPRRWIYDSSKLASGVPARFSGSGSGRDYTLTISSLEPEDFAVYYCQQWSRNPPTFGGGTKVEIKGGGSGGSGGCPPCGGSGGQVQLVQSGAEVKKPGSSVKVSCKASGYTFTRSTMHWVKQAPGQGLEWIGYINPSSAYTNYNQKFQGRVTLTADKSTSTAYMELSSLRSEDTAVYYCASPQVHYDYAGFPYWGCGTLVTVSS
notes: not shown: IgG1 hinge-CH2-CH3 with L234A/L235A/D265S and heterodimerization mutations
In turn, B5 had an EC50 in the assay with human claudin 18.2 [2] of 12.7 nM. Compared with the last molecule, the EC50 is about 15-fold lower.

B6: stapled PSMA×CD3 antibody (PS3B2040) (bispecific antibody, human IgG1, lambda, L234A L235A)
heavy: EVQLVESGGGLVQPGGSLRLSCAASGFTFSSYAMSWVRQAPGKGLEWVSAISGGIGSTYYADSVKGRFTISRDNSKNTLWLQMNSLRAEDTAVYYCAKDAVGATPYYFDYWGQGTLVTVSSASTKGPSVFPLAPSSKSTSGGTAALGCLVKDYFPEPVTVSWNSGALTSGVHTFPAVLQSSGLYSLSSVVTVPSSSLGTQTYICNVNHKPSNTKVDKKVEPKSCDKTHTCPPCPAPEAAGGPSVFLFPPKPKDTLMISRTPEVTCVVVSVSHEDPEVKFNWYVDGVEVHNAKTKPREEQYNSTYRVVSVLTVLHQDWLNGKEYKCKVSNKALPAPIEKTISKAKGQPREPQVYTLPPSREEMTKNQVSLSCAVKGFYPSDIAVEWESNGQPENNYKTTPPVLDSDGSFFLVSKLTVDKSRWQQGNVFSCSVMHEALHNRFTQKSLSLSPGK
light: QSVLTQPPSVSAAPGQKVTISCSGSSSNIGINYVSWYQQLPGTAPKLLIYDNNKRPSGIPDRFSGSKSGTSATLGITGLQTGDEADYYCGTWDSSLSAVVFGGGTKLTVLGQPKAAPSVTLFPPSSEELQANKATLVCLISDFYPGAVTVAWKADSSPVKAGVETTTPSKQSNNKYAASSYLSLTPEQWKSHRSYSCQVTHEGSTVEKTVAPTECS
chain: EIVLTQSPATLSASPGERVTLSCSASSSVSYMNWYQQKPGCAPRRWIYDSSKLASGVPARFSGSGSGRDYTLTISSLEPEDFAVYYCQQWSRNPPTFGGGTKVEIKGGGSGGSGGCPPCGGSGGQVQLVQSGAEVKKPGSSVKVSCKASGYTFTRSTMHWVKQAPGQGLEWIGYINPSSAYTNYNQKFQGRVTLTADKSTSTAYMELSSLRSEDTAVYYCASPQVHYDYAGFPYWGCGTLVTVSSEPKSSDKTHTCPPCPAPEAAGGPSVFLFPPKPKDTLMISRTPEVTCVVVSVSHEDPEVKFNWYVDGVEVHNAKTKPREEQYNSTYRVVSVLTVLHQDWLNGKEYKCKVSNKALPAPIEKTISKAKGQPREPQVYTLPPSREEMTKNQVSLWCLVKGFYPSDIAVEWESNGQPENNYKTTPPVLDSDGSFFLYSKLTVDKSRWQQGNVFSCSVMHEALHNHYTQKSLSLSPGK
notes: HC1/LC1 = anti-PSMA Fab arm (PSMB896-G100A-Fab); HC2 = anti-CD3 spFv-Fc (CD3B2030 N106A, VL-linker-VH); knob-in-hole IgG1; also called stapled PSMA×CD3 bispecific
Consider B6, for which, in assay [4], the “cytotoxicity EC50 (% tumor lysis, Incucyte), LNCaP cells with human PBMCs, E:T 3:1” value stood at 0.051 nM and the “cytotoxicity EC50 (% tumor lysis, Incucyte), LNCaP cells with human Pan T cells, E:T 3:1” value was determined as 0.06 nM. Further, the binding result with Human CD3 epsilon is listed as “binds”. This molecule displayed an EC50 in assay [5] of 11.6 nM.
